Paper PMC4174437

Target: Ec Hfq WT (Escherichia coli, UniProt P0A6X3 1-102)
Assay: fluorescence polarization

Ec Hfq WT, sequence (P0A6X3 whole entry): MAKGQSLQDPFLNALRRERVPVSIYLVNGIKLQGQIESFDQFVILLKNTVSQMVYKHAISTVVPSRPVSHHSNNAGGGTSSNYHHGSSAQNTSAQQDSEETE

B1: U6 (5'-fluorescein) (ssRNA)
RNA: UUUUUU
- Kd: 3.3 nM
